The target of the series is T1, FOXP1 (recombinant, pET28a) (UniProt Q9H334 1-677).
T1 sequence: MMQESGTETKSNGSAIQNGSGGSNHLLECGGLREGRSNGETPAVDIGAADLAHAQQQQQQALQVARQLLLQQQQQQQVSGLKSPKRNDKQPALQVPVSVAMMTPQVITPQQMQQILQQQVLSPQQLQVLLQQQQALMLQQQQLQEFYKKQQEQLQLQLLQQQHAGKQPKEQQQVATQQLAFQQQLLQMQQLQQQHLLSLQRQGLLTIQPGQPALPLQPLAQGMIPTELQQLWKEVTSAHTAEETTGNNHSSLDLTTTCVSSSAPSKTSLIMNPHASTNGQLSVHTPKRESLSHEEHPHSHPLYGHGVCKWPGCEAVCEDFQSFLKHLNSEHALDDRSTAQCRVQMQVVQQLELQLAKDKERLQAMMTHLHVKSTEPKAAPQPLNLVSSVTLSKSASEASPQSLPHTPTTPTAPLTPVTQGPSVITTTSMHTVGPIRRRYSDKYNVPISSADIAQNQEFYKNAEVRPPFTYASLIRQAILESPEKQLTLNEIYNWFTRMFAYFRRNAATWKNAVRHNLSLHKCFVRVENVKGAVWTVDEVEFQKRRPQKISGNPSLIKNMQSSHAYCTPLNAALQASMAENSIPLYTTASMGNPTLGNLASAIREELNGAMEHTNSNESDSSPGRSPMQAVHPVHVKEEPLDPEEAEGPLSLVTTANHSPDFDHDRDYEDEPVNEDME
Kind of series: EMSA; Nondenaturing PAGE EMSA, HRP-streptavidin detection; buffer, salt, pH and temperature not stated. Particulars: protein: recombinant; tags: His tag (implied by pET28a and Ni-NTA); chain copies: 2; blunt.

B1: Probe B (GINS1 promoter FOXP1 site B) (dsDNA)
DNA 1: AGCTCAAGAGTTGTCGACCAGACTG
DNA 2: CAGTCTGGTCGACAACTCTTGAGCT
Take B1: the binding result is “binds”.

B2: Probe A (GINS1 promoter FOXP1 site A) (dsDNA)
DNA 1: TCAAAAAGGCAATGTTTGCTGGGTG
DNA 2: CACCCAGCAAACATTGCCTTTTTGA
In the case of B2, the binding result is “binds”.

Values taken from article PMC10414051, “FOXP1-GINS1 axis promotes DLBCL proliferation and directs doxorubicin resistance”.
